Assay results: the supplement of paper PMC7877785
± gives the uncertainty stated by the source.

Experiment: self-splicing fitness, log relative to wild type (ln ratio); higher = more splicing; Tetrahymena group I intron in knt gene, E. coli kanamycin selection, DiMSum; sequences stand for … in CUCUCU…GGAGGGAAAAGUUAUCAGGCAUGCACCUGGUAGCUAGUCUUUAAACCAAUAGAUUGCAUCGGUUUAAAAGGCAAGACCGUCAAAUUGCGGGAAAGGGGUCAACAGCCGUUCAGUACCAAGUCUCAGGGGAAACUUUGAGAUGGCCUUGCAAAGGGUAUGGUAAUAAGCUGACGGACAUGGUCCUAACCACGCAGCCAAGUCCUAAGUCAACAGAUCUUCUGUUGAUAUGGAUGCAGUUCACAGACUAAAUGUCGGUCGGGGAAGAUGUAUUCUUCUCAUAAGAUAUAGUCGGACCUCUCCUUAAUGGGAGCUAGCGGAUGAAGUGAUGCAACACUGGAGCCGCUGGGAACUAAUUUGUAUGCGAAAGUAUAUUGAUUAGUUUUGGAGUACUCGUGGUCG
Outline: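 A randomised library covering all eight P1ex-region intron nucleotides was built with the intron in the knt kanamycin-resistance gene on pET-22b(+) and held in E. coli BL21(DE3). Cells were grown overnight at 37°C or 30°C on LB agar, with or without 25 μg/mL kanamycin, plus 100 μg/mL carbenicillin, 50 μM IPTG and 0.2% rhamnose, and pooled colonies were amplicon-sequenced on an Illumina HiSeq 2500. DiMSum fitness is the error-weighted combination of wild-type-normalised replicate fold changes, kanamycin versus none.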

Q: Which results are given for CCAGAGCAAUAUUACGCAUC?
A: self-splicing fitness (ln) (30 °C): -2.56 ± 0.28; self-splicing fitness (ln) (37 °C): -1.99 ± 0.31

Q: Which “self-splicing fitness (ln)” value (30 °C) does the source give for CCAUAGCAAUAUUACGUGAU here?
A: -2.78 ± 0.097

Q: And the “self-splicing fitness (ln)” value (37 °C)?
A: -2.76 ± 0.16

Q: Which “self-splicing fitness (ln)” value (30 °C) does the source give for CUACAGCAAUAUUACGACGU here?
A: -4.63 ± 0.23

Q: And the “self-splicing fitness (ln)” value (37 °C)?
A: -3.03 ± 0.2

Q: Which results are given for CGGCAGCAAUAUUACGGUGA?
A: self-splicing fitness (ln) (30 °C): -3.35 ± 0.21; self-splicing fitness (ln) (37 °C): -1.75 ± 0.17

Q: Which “self-splicing fitness (ln)” value (30 °C) does the source give for ACGAAGCAAUAUUACGACUU here?
A: -0.832 ± 0.058

Q: What about the “self-splicing fitness (ln)” value (37 °C) of the same sequence?
A: 0.00574 ± 0.081

Q: For CUCGAGCAAUAUUACGAAAA, which “self-splicing fitness (ln)” value (30 °C) is on record?
A: -1.93 ± 0.44

Q: With AUGUAGCAAUAUUACGGAUU as the sequence, how does the “self-splicing fitness (ln)” value (30 °C) read?
A: -1.57 ± 0.092

Q: What about the “self-splicing fitness (ln)” value (37 °C) of the same sequence?
A: -0.598 ± 0.091

Q: With GCAUAGCAAUAUUACGAGCG as the sequence, how does the “self-splicing fitness (ln)” value (30 °C) read?
A: -1.3 ± 0.077

Q: And the “self-splicing fitness (ln)” value (37 °C)?
A: -1.05 ± 0.085

Q: Which “self-splicing fitness (ln)” value (30 °C) does the source give for GGACAGCAAUAUUACGCUCG here?
A: -0.123 ± 0.086

Q: And the “self-splicing fitness (ln)” value (37 °C)?
A: -0.0297 ± 0.11

Q: What does the source list for UUGGAGCAAUAUUACGAAGU?
A: self-splicing fitness (ln) (30 °C): -3.34 ± 0.37; self-splicing fitness (ln) (37 °C): 0.521 ± 0.31

Q: What does the source list for UAGUAGCAAUAUUACGUGGG?
A: self-splicing fitness (ln) (30 °C): -3.26 ± 0.25; self-splicing fitness (ln) (37 °C): -1.41 ± 0.17

Q: Which results are given for GCUAAGCAAUAUUACGCCUG?
A: self-splicing fitness (ln) (30 °C): -0.523 ± 0.16; self-splicing fitness (ln) (37 °C): -1.55 ± 0.22

Q: Which “self-splicing fitness (ln)” value (30 °C) does the source give for UUUGAGCAAUAUUACGCUGU here?
A: -3.01 ± 0.27

Q: Which “self-splicing fitness (ln)” value (30 °C) does the source give for CUCAAGCAAUAUUACGUACU here?
A: -3.51 ± 0.22

Q: What about the “self-splicing fitness (ln)” value (37 °C) of the same sequence?
A: -1.29 ± 0.17

Q: Which “self-splicing fitness (ln)” value (30 °C) does the source give for UGGCAGCAAUAUUACGGUCG here?
A: -0.881 ± 0.083

Q: And the “self-splicing fitness (ln)” value (37 °C)?
A: 0.133 ± 0.13

Q: For UGUAAGCAAUAUUACGGAGG, which “self-splicing fitness (ln)” value (30 °C) is on record?
A: -3.23 ± 0.21

Q: And the “self-splicing fitness (ln)” value (37 °C)?
A: -3.5 ± 0.33

Q: For AACGAGCAAUAUUACGGGAG, which “self-splicing fitness (ln)” value (30 °C) is on record?
A: -3.14 ± 0.17

Q: What about the “self-splicing fitness (ln)” value (37 °C) of the same sequence?
A: -2.72 ± 0.19

Q: With GAUCAGCAAUAUUACGAGAA as the sequence, how does the “self-splicing fitness (ln)” value (30 °C) read?
A: -1.89 ± 0.17

Q: And the “self-splicing fitness (ln)” value (37 °C)?
A: -1.16 ± 0.14

Q: Which “self-splicing fitness (ln)” value (30 °C) does the source give for CGCGAGCAAUAUUACGCCGU here?
A: -3.93 ± 0.47

Q: And the “self-splicing fitness (ln)” value (37 °C)?
A: -3.01 ± 0.4

Q: For GUUCAGCAAUAUUACGUGCA, which “self-splicing fitness (ln)” value (30 °C) is on record?
A: -0.645 ± 0.11

Q: What about the “self-splicing fitness (ln)” value (37 °C) of the same sequence?
A: -0.382 ± 0.11

Q: For AAGGAGCAAUAUUACGCGAC, which “self-splicing fitness (ln)” value (30 °C) is on record?
A: -2.44 ± 0.41

Q: And the “self-splicing fitness (ln)” value (37 °C)?
A: -1.54 ± 0.35

Q: With UAGCAGCAAUAUUACGCGGA as the sequence, how does the “self-splicing fitness (ln)” value (30 °C) read?
A: -0.908 ± 0.079

Q: What about the “self-splicing fitness (ln)” value (37 °C) of the same sequence?
A: -0.843 ± 0.082

Q: Which results are given for GCUUAGCAAUAUUACGAAUU?
A: self-splicing fitness (ln) (30 °C): -1.06 ± 0.076; self-splicing fitness (ln) (37 °C): -0.24 ± 0.097

Q: With AGCGAGCAAUAUUACGGAAU as the sequence, how does the “self-splicing fitness (ln)” value (30 °C) read?
A: -2.56 ± 0.26

Q: And the “self-splicing fitness (ln)” value (37 °C)?
A: -2.66 ± 0.38

Q: What does the source list for AUCAAGCAAUAUUACGCUGG?
A: self-splicing fitness (ln) (30 °C): -2.36 ± 0.096; self-splicing fitness (ln) (37 °C): -0.84 ± 0.12

Q: Which results are given for AAAGAGCAAUAUUACGUUGG?
A: self-splicing fitness (ln) (30 °C): -3.59 ± 0.22; self-splicing fitness (ln) (37 °C): -2.4 ± 0.25

Q: With GUAUAGCAAUAUUACGCGCU as the sequence, how does the “self-splicing fitness (ln)” value (30 °C) read?
A: -2.22 ± 0.16

Q: And the “self-splicing fitness (ln)” value (37 °C)?
A: -0.818 ± 0.16

Q: Which results are given for AGUCAGCAAUAUUACGAUAG?
A: self-splicing fitness (ln) (30 °C): -1.12 ± 0.14; self-splicing fitness (ln) (37 °C): -2.32 ± 0.23

Q: With CUGAAGCAAUAUUACGCAUG as the sequence, how does the “self-splicing fitness (ln)” value (30 °C) read?
A: -0.485 ± 0.063

Q: And the “self-splicing fitness (ln)” value (37 °C)?
A: 0.071 ± 0.1

Q: With ACGGAGCAAUAUUACGUAUA as the sequence, how does the “self-splicing fitness (ln)” value (30 °C) read?
A: -2.42 ± 0.18

Q: What about the “self-splicing fitness (ln)” value (37 °C) of the same sequence?
A: -1.86 ± 0.25

Q: For GCCGAGCAAUAUUACGCACA, which “self-splicing fitness (ln)” value (30 °C) is on record?
A: -1.22 ± 0.2

Q: What about the “self-splicing fitness (ln)” value (37 °C) of the same sequence?
A: -1.51 ± 0.19

Q: Which results are given for UUUAAGCAAUAUUACGCCCU?
A: self-splicing fitness (ln) (30 °C): -0.119 ± 0.24; self-splicing fitness (ln) (37 °C): 0.0801 ± 0.28

Q: For CACUAGCAAUAUUACGUGUU, which “self-splicing fitness (ln)” value (30 °C) is on record?
A: -4.69 ± 0.23

Q: And the “self-splicing fitness (ln)” value (37 °C)?
A: -2.88 ± 0.16

Q: With GCGUAGCAAUAUUACGUCCC as the sequence, how does the “self-splicing fitness (ln)” value (30 °C) read?
A: -0.245 ± 0.24

Q: Which “self-splicing fitness (ln)” value (30 °C) does the source give for AAGAAGCAAUAUUACGGCCA here?
A: -0.587 ± 0.097

Q: And the “self-splicing fitness (ln)” value (37 °C)?
A: -0.00293 ± 0.12

Q: What does the source list for CACUAGCAAUAUUACGCUGA?
A: self-splicing fitness (ln) (30 °C): -2.58 ± 0.23; self-splicing fitness (ln) (37 °C): -1.51 ± 0.19

Q: For AAUGAGCAAUAUUACGCUCU, which “self-splicing fitness (ln)” value (30 °C) is on record?
A: -3.18 ± 0.19

Q: What about the “self-splicing fitness (ln)” value (37 °C) of the same sequence?
A: -3.53 ± 0.23

Q: Which “self-splicing fitness (ln)” value (30 °C) does the source give for AUGAAGCAAUAUUACGUAUU here?
A: -1.52 ± 0.081

Q: What about the “self-splicing fitness (ln)” value (37 °C) of the same sequence?
A: -1.23 ± 0.099

Q: With GAAAAGCAAUAUUACGACUA as the sequence, how does the “self-splicing fitness (ln)” value (30 °C) read?
A: 0.0422 ± 0.14

Q: And the “self-splicing fitness (ln)” value (37 °C)?
A: 0.403 ± 0.15

Q: Which “self-splicing fitness (ln)” value (30 °C) does the source give for UAUUAGCAAUAUUACGCACC here?
A: -2.77 ± 0.26

Q: And the “self-splicing fitness (ln)” value (37 °C)?
A: -0.337 ± 0.2

Q: Which results are given for AUUAAGCAAUAUUACGGUCG?
A: self-splicing fitness (ln) (30 °C): -1.59 ± 0.11; self-splicing fitness (ln) (37 °C): -0.942 ± 0.12

Q: For GACGAGCAAUAUUACGGCCU, which “self-splicing fitness (ln)” value (30 °C) is on record?
A: -1.85 ± 0.096

Q: And the “self-splicing fitness (ln)” value (37 °C)?
A: -1.12 ± 0.14

Q: Which “self-splicing fitness (ln)” value (30 °C) does the source give for CCCAAGCAAUAUUACGCAAC here?
A: -3.16 ± 0.26

Q: And the “self-splicing fitness (ln)” value (37 °C)?
A: -2.71 ± 0.38

Q: For GUCUAGCAAUAUUACGACUU, which “self-splicing fitness (ln)” value (30 °C) is on record?
A: -1.32 ± 0.12

Q: What about the “self-splicing fitness (ln)” value (37 °C) of the same sequence?
A: -0.56 ± 0.11

Q: Which results are given for UGGCAGCAAUAUUACGUUUG?
A: self-splicing fitness (ln) (30 °C): -0.921 ± 0.06; self-splicing fitness (ln) (37 °C): -0.496 ± 0.089

Q: Which “self-splicing fitness (ln)” value (30 °C) does the source give for CUUAAGCAAUAUUACGCAAA here?
A: -2.76 ± 0.4

Q: With UGUUAGCAAUAUUACGAUGU as the sequence, how does the “self-splicing fitness (ln)” value (30 °C) read?
A: -1.78 ± 0.12

Q: And the “self-splicing fitness (ln)” value (37 °C)?
A: -0.548 ± 0.13

Q: Which results are given for CCGCAGCAAUAUUACGUCAG?
A: self-splicing fitness (ln) (30 °C): -0.624 ± 0.054; self-splicing fitness (ln) (37 °C): 0.0667 ± 0.065

Q: With UUGGAGCAAUAUUACGUUCU as the sequence, how does the “self-splicing fitness (ln)” value (37 °C) read?
A: -3.09 ± 0.27
